How the values were obtained:
[1] = αIIbβ3 cell surface expression, flow cytometry; conditions: glycan lost; control: wild-type αIIb with β3
[2] = eptifibatide-induced mAb binding, flow cytometry; conditions: glycan lost; control: wild-type αIIb with β3
[3] = surface expression by mAbs 10E5, AP2, AP3, flow cytometry; conditions: glycan lost; control: wild-type αIIbβ3
[4] = β3-K716A-mediated mAb binding, flow cytometry; conditions: glycan lost; control: wild-type αIIb with active β3-K716A

Row | Substance | expression_or_secretion [1] | structure_or_conformation [2] | other results
1 | integrin αIIb subunit: αIIb-N15Q | no change |  | 
2 | integrin αIIb subunit: αIIb-N15S |  | no change | expression_or_secretion [3]: no change
3 | integrin αIIb subunit: αIIb-N249Q | decreases |  | 
4 | integrin αIIb subunit: αIIb-N249S |  | no change | structure_or_conformation [4]: no change
5 | integrin αIIb subunit: αIIb-N570Q | decreases |  | 
6 | integrin αIIb subunit: αIIb-N680Q | decreases |  | 
7 | integrin αIIb subunit: αIIb-N931Q | decreases |  | 
8 | integrin αIIb subunit: αIIb-N931S |  | no change | 
